± gives the uncertainty stated by the source.
Test: protein stability index of a GFP-peptide fusion (yeast GPS) (PSI 1-4); higher = more stable; sorted into four equal gates, so the index is relative within each strain
Details: doa10∆
Procedure, shortened: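 Plasmids in a pooled yeast library fused tiled 17-residue yeast protein peptides downstream of GFP and also expressed Cherry. Mid-log cultures grown without leucine were sorted into four equal gates by GFP/Cherry fluorescence ratio. Each gate's plasmids were PCR-amplified and Illumina-sequenced, and reads were matched to strains by barcodes. The protein stability index is derived by multiplying each gate's read frequency by its gate number and summing the results.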
For LLVPASDLINKDLVKNN [FAS1], the protein stability index was 1.76 ± 0.086. For LLVPLALLTKRLYPHWD [CSN12], the protein stability index was 2.33 ± 0.066. LLYELTAFKATVFFLIR [YJL039C/NUP192] gave a protein stability index of 2.32 ± 0.071. LMCLSSKYCEKSLPLLI [YCS4] showed a protein stability index of 2.45 ± 0.1. With LMQNMMNMFGGGMGGGM [SRP54] the protein stability index was 1.85 ± 0.16. In the case of LMSCISVGTDPMPIITF [RPB2], the protein stability index is reported as 2.26 ± 0.086. LMTSHTKGDTSKATGAP [RTT102] showed a protein stability index of 3.12 ± 0.068. LNCGNGMGIGFIDHHAA [POP1] showed a protein stability index of 3.33 ± 0.086. For LNEEAVIFLSSLLTLVG [YJL039C/NUP192], the protein stability index was 2.52 ± 0.076. Sequence LNELYQTQQDLPKVRYN [NSL1] has a protein stability index of 3.1 ± 0.042. LNESDCLEACSFILSSL [YDL116W/NUP84] showed a protein stability index of 2.62 ± 0.056. With LNGREVKAILMQRHVKV [RPS4A] the protein stability index was 1.23 ± 0.081. LNIRIQTYGETTAVDAL [RPC19] showed a protein stability index of 2.02 ± 0.12. In the case of LNLKFKEKWPSLELQSF [YML103C/NUP188], the protein stability index is reported as 2.72 ± 0.097. Sequence LNLPLQFSLPNGDNSTT [SNF12] has a protein stability index of 2.48 ± 0.047. With LNNTHVISSGPLAAGNF [RPC53] the protein stability index was 2.74 ± 0.086. LNRQNDITDGKDYHTLA [RPS18A] showed a protein stability index of 3.13 ± 0.069. For LNSTLESLYDLIEFQPS [MED6], the protein stability index was 2.8 ± 0.049. In the case of LNTLFNPVTLNEDSKAF [NUT1], the protein stability index is reported as 2.57 ± 0.062. For LNVAEIITSGRDTREVL [ARP9], the protein stability index was 3.35 ± 0.14. In the case of LNVKCTRNPDAPKGSTD [RPC40], the protein stability index is reported as 3.19 ± 0.095. With LNVPVFQIVIEPLAIAL [ARP7] the protein stability index was 1.65 ± 0.052. Work on LNVSNTKENGDFTLPED [PRP8] yielded a protein stability index of 2.98 ± 0.1. Sequence LPGELAKHAVSEGTRAV [HTB1] has a protein stability index of 3.22 ± 0.11. In the case of LPLLYNFNPDNGFAPIS [FAS1], the protein stability index is reported as 2.03 ± 0.12. In the case of LPLQPIEIDYTVRVDKA [SNF12], the protein stability index is reported as 2.39 ± 0.061. With LPPEKIYSPLHSFIKML [SIR2] the protein stability index was 1.65 ± 0.034. LPQFRSSIQESLLSLVG [ECM29] showed a protein stability index of 1.87 ± 0.067. LPRELPKLLDALNKISK [SNU114] showed a protein stability index of 2.65 ± 0.072. LPTDGGLTSRLQRQQRK [POP4] showed a protein stability index of 2.95 ± 0.16. With LPYAIAGSGSTFIYGYC [PRE3] the protein stability index was 2.13 ± 0.14. For LPYPTYWSDKKADTDTL [SNF5], the protein stability index was 2.91 ± 0.11. In the case of LQCISQINQGVPSAKPL [SNF11], the protein stability index is reported as 2.98 ± 0.092. With LQDDEDHKFPIRENKVT [BRN1] the protein stability index was 2.7 ± 0.1. For LQESINHVMYTEVSRKS [ECM29], the protein stability index was 2.47 ± 0.054. Sequence LQGEVENIAQMKPKAEK [SMC4] has a protein stability index of 3.02 ± 0.15. LQIAQLTLKHRQNKVQH [RPN10] showed a protein stability index of 2.26 ± 0.088. For LQIHSRKMTTDDDINWQ [RPT5], the protein stability index was 3.09 ± 0.14. For LQIKRDVLDDLYRKLQR [CSE2], the protein stability index was 2.94 ± 0.072. LQILAMLLLNIFISSDH [YMR129W/POM152] showed a protein stability index of 1.72 ± 0.058. For LQKRVIEHNLRVISEYY [RPN5], the protein stability index was 2.02 ± 0.12. In the case of LQLETPAEVGRAIRSEK [BRR2], the protein stability index is reported as 2.08 ± 0.11. LQPLEEGLIIDTDKLPI [SIN4] showed a protein stability index of 2.73 ± 0.097. LQRDLIQTKEQVSINSN [YIL149C/MLP2] showed a protein stability index of 2.78 ± 0.072. LQRTILNRIINHMLIDS [RGR1] gave a protein stability index of 2.76 ± 0.057. LQYLDKHIKNLEDDSLL [RPN12] gave a protein stability index of 3.44 ± 0.068. LRAIEKNDDNSCRNPEH [YIL149C/MLP2] gave a protein stability index of 3.19 ± 0.16. With LRDYTTVPRIVQLLSKS [RPN2] the protein stability index was 1.62 ± 0.046. LRELSCCINAAFLALVD [RRP46] showed a protein stability index of 2.38 ± 0.059. In the case of LREYLNLPEHIVPGTYI [RPS10A], the protein stability index is reported as 3.08 ± 0.078. With LRFPEHTSSGSVSFKVF [BRR2] the protein stability index was 1.59 ± 0.055. With LRIELQSVYNDEKLKTE [SRB8] the protein stability index was 3.17 ± 0.22. In the case of LRKIDMLQKKLVEVEDE [SRB7], the protein stability index is reported as 3.06 ± 0.13. Work on LRLKPGRKYTTLGKLST [RPL16B] yielded a protein stability index of 2.69 ± 0.057. Sequence LRLVDDDENNPSHYPHP [RRP6] has a protein stability index of 3.11 ± 0.09. For LRSTEYSKSFEQFKMVS [POP1], the protein stability index was 2.21 ± 0.089. LSALFTISSKPDILATD [YCS4] showed a protein stability index of 2.32 ± 0.14. In the case of LSEAWRCWKANIPWDVP [PRP8], the protein stability index is reported as 2.15 ± 0.11. LSEDVNLETLVTTKDDL [RPT2] showed a protein stability index of 3.01 ± 0.13. Work on LSEPLIKIGIRVMKSLS [YCG1] yielded a protein stability index of 1.59 ± 0.066. Sequence LSEWEEYLKGSESQLNS [YCS4] has a protein stability index of 3.44 ± 0.13. Sequence LSHIVYFLVLSPYGNLQ [RPN5] has a protein stability index of 1.53 ± 0.054. Sequence LSHYAKIRPWRTFRLNE [RPO31] has a protein stability index of 2.86 ± 0.058. LSIWIKNYPEYFLKVTF [IRR1] gave a protein stability index of 1.88 ± 0.056. LSKIKFPESIWKDFTVE [YCG1] showed a protein stability index of 2.59 ± 0.049. In the case of LSKRQKRKSAQEPELSL [SMC4], the protein stability index is reported as 3.17 ± 0.11. For LSLGEAFKKIDAITVKD [COR1], the protein stability index was 3.39 ± 0.29. For LSLVYEIGGSDLKESMV [ECM29], the protein stability index was 2.98 ± 0.11. Work on LSRPYKALKTNINFASG [CDC53] yielded a protein stability index of 2.4 ± 0.049. LTDPMTVMFFYHNKHMM [DIB1] gave a protein stability index of 2.19 ± 0.075. With LTHSTPKNFGIGQAVQP [RPL8A] the protein stability index was 3.06 ± 0.06. In the case of LTKFRQKLMQLVVLTDV [RGR1], the protein stability index is reported as 1.26 ± 0.097. LTLKHRQNKVQHQRIVA [RPN10] gave a protein stability index of 1.54 ± 0.071. LTPIQKKIMDETPSRLL [ITC1] gave a protein stability index of 3.33 ± 0.074. LTQEELERIVQIMQNPT [RPS18A] showed a protein stability index of 2.64 ± 0.099. Work on LTQGINGKEVPLAKIYL [MED1] yielded a protein stability index of 2.52 ± 0.26. Work on LTSNISSLVRSCGEEEF [REC8] yielded a protein stability index of 3.33 ± 0.17. LTSQAPQTTQMFQSQSQ [YDL088C/ASM4] showed a protein stability index of 3.12 ± 0.11. LTWLSSFSVCKIRCFRY [IRR1] gave a protein stability index of 2.07 ± 0.053. LTYDKDLTNNPQDDDSQ [MTR3] showed a protein stability index of 2.8 ± 0.073. With LTYKSELSKSRALQENG [YMR153W/NUP53] the protein stability index was 1.89 ± 0.063. For LVAAFIASLERELILAK [YCG1], the protein stability index was 1.79 ± 0.065. LVALSNEPAARLGSEAD [FAS2] showed a protein stability index of 3.44 ± 0.082. For LVDSLATFTSIELTSYE [RPN7], the protein stability index was 1.57 ± 0.057. LVEKVYARFKNDFFPGE [ITC1] showed a protein stability index of 3.47 ± 0.091. LVHDGLARGLRESTKAL [RPS12] gave a protein stability index of 3.41 ± 0.091. LVHDVVYDFYGRHVATC [YGL100W/SEH1] showed a protein stability index of 1.46 ± 0.074. For LVNRKPIPFEFQAVIQK [SNF2], the protein stability index was 2.65 ± 0.079. In the case of LVPQLGHVGSVQISNIP [PRP8], the protein stability index is reported as 2.32 ± 0.1. Sequence LVPTASFFIASQLQEQF [FAS1] has a protein stability index of 1.35 ± 0.047. Work on LVQKFGGADQVTRTQQW [SWI1] yielded a protein stability index of 3.08 ± 0.13. In the case of LVQLPKSAMDTFKSVSK [POP3], the protein stability index is reported as 2.65 ± 0.052. With LVRDSKPSKPFNVDDVL [MED8] the protein stability index was 2.48 ± 0.055. For LVRELYQWRDLIARRDD [RRP6], the protein stability index was 2.96 ± 0.056. Sequence LVSEARTLWPEFIPPDP [SSN8] has a protein stability index of 2.61 ± 0.041. LVSTLTTGISSTGAADG [SMC2] showed a protein stability index of 2.34 ± 0.097. In the case of LVVLTDVVERLHKNFES [RGR1], the protein stability index is reported as 2.49 ± 0.093. LYDLRASYAKIEIKISD [SNU114] showed a protein stability index of 2.34 ± 0.11. Work on LYDNFVSKFYDKINQLS [RPN9] yielded a protein stability index of 2.78 ± 0.098. With LYGTAIGARSQGAKTYL [PRE5] the protein stability index was 2.88 ± 0.13. LYLKVIPMDFIRNVLVT [SSN2] showed a protein stability index of 1.36 ± 0.094. With LYNDNNKNNNNRHNLLN [SWI1] the protein stability index was 3.08 ± 0.1.

Same assay, conditions: pdr5∆
LLVPASDLINKDLVKNN [FAS1] showed a protein stability index of 2.95 ± 0.097.

From the supplement of paper PMC9732359
